# In patent US20210030885A1, “HUMANIZED ANTI-LIV1 ANTIBODIES FOR THE TREATMENT OF CANCER” (priority 2019, published 2021):
# System: patients with metastatic breast cancer
# Assay: Phase 1 dose-escalation study, safety and tolerability of weekly LV (Day 1, 8, 15 of 3-week cycle)
# Type: in vivo, human
# Text: This is a phase 1, open label, dose escalation study to evaluate the safety and tolerability of ladiratuzumab vedotin (LV) in patients with metastatic breast cancer.
# Eligible patients are females at least 18 years of age who have incurable, unresectable, locally advanced or metastatic breast cancer (LA/mBC). Patients must have pathologically and radiologically confirmed hormone receptor-positive/human epidermal growth factor 2 negative (HR+/HER2−) or metastatic triple-negative breast cancer (mTNBC) with at least 1 measurable lesion per RECIST v1.1. Subjects with HR+/HER2− disease must have received no more than 1 prior line of cytotoxic chemotherapy in the locally advanced (LA)/mBC setting, either as single agent or combination therapy. Subjects with TNBC must have received 1 prior line of cytotoxic chemotherapy in the LA/mBC setting. Progression within 6 months of completion of neoadjuvant therapy is considered an LA/mBC regimen. Enrollment is open to all patients, irrespective of their LIV-1 expression level. Available and adequate archival baseline tumor sample is required. A fresh biopsy sample may be submitted in place of an archival sample if medically feasible.
# Up to […] will be enrolled (42 HR+/HER2− and 42 mTNBC) into dose escalation and dose-expansion cohorts. Patients will receive LV on Day 1, Day 8, and Day 15 in every 3-week cycle. The study will have dose escalation and expansions cohorts. Patients with HR+/HER2− and TN disease will be enrolled into separate dose-expansion cohorts for each dose level.
# Dose escalation will be conducted using the modified toxicity probability interval (mTPI) method according to Ji Y. et al. Clin Trials 7(6):653-63 (2010). Only 1 dose-escalation cohort will be open at a time. Dose-expansion cohorts may be opened at any dose level that has cleared dose-limiting toxicity (DLT) evaluation. Initially, up to approximately 10 patients will be enrolled at each dose level. DLT evaluation will only include data from the dose-escalation cohorts, but the totality of data from all patients at each dose level will be used to determine the recommended weekly LV dose.
# LV will be administered at a dose of 0.75 mg/kg to 1.75 mg/kg by intravenous infusion over the course of 30 minutes on Day 1, Day 8, and Day 15 in every 3-week cycle.
# The DLT evaluation period is the first treatment cycle (3 weeks). A DLT will be defined as any AE≥Grade 3, according to the NCI CTCAE v4.03, that is possibly, probably, or definitely related to treatment with LV, unless evidence exists that the AE has an etiology other than the investigational agent (e.g., disease progression, pre-existing medical condition, underlying disease, intercurrent illness, or concomitant medication), and/or the event has no plausible temporal relationship to administration of the investigational agent.
# Patients were enrolled in the study described in Example 19. Patients had either first or second line endocrine refractory HR+/HER2− metastatic breast cancer or second line metastatic triple negative breast cancer (TNBC). LV was administered at a dose of 1.0 mg/kg, 1.25 mg/kg, or 1.5 mg/kg by intravenous infusion over the course of 30 minutes on Day 1, Day 8, and Day 15 in every 3-week cycle as described in Example 19.
substance,measurement,setting,value
ladiratuzumab vedotin [LV],"Grade 5 ischemic colitis, subjects","1 mg/kg LV, unrelated to treatment",*Grade 5 ischemic colitis was observed in 1 subject treated with 1 mg/kg LV. This was unrelated to treatment.
same,Grade 3 or higher TEAE: Any Adverse Event,"1.0 mg/kg Q1W, n = 20",12 (60%) n (%)
same,Grade 3 or higher TEAE: Diarrhoea,"1.0 mg/kg Q1W, n = 20",1 (5%) n (%)
same,Grade 3 or higher TEAE: Fatigue,"1.0 mg/kg Q1W, n = 20",4 (20%) n (%)
same,Grade 3 or higher TEAE: Hyperglycemia,"1.0 mg/kg Q1W, n = 20",3 (15%) n (%)
same,Grade 3 or higher TEAE: Hypophosphataemia,"1.0 mg/kg Q1W, n = 20",1 (5%) n (%)
same,Grade 3 or higher TEAE: Myalgia,"1.0 mg/kg Q1W, n = 20",0 n (%)
same,Grade 3 or higher TEAE: Nausea,"1.0 mg/kg Q1W, n = 20",1 (5%) n (%)
same,Grade 3 or higher TEAE: Neutropenia,"1.0 mg/kg Q1W, n = 20",2 (10%) n (%)
same,Grade 3 or higher TEAE: Neutrophil count decreased,"1.0 mg/kg Q1W, n = 20",1 (5%) n (%)
same,Grade 3 or higher TEAE: Peripheral Sensory Neuropathy,"1.0 mg/kg Q1W, n = 20",3 (15%) n (%)
same,SAE: Anaemia,"1.0 mg/kg Q1W, n = 20",1 (5%) n (%)
same,SAE: Any Adverse Event,"1.0 mg/kg Q1W, n = 20",5 (25%) n (%)
same,SAE: Colitis,"1.0 mg/kg Q1W, n = 20",1 (5%) n (%)
same,SAE: Dehydration,"1.0 mg/kg Q1W, n = 20",1 (5%) n (%)
same,SAE: Diabetic ketoacidosis,"1.0 mg/kg Q1W, n = 20",1 (5%) n (%)
same,SAE: Dyspnoea,"1.0 mg/kg Q1W, n = 20",2 (10%) n (%)
same,SAE: Embolism,"1.0 mg/kg Q1W, n = 20",1 (5%) n (%)
same,SAE: Fatigue,"1.0 mg/kg Q1W, n = 20",1 (5%) n (%)
same,SAE: Febrile neutropenia,"1.0 mg/kg Q1W, n = 20",1 (5%) n (%)
same,SAE: Hyperglycaemia,"1.0 mg/kg Q1W, n = 20",1 (5%) n (%)
same,SAE: Pneumonia,"1.0 mg/kg Q1W, n = 20",0 n (%)
same,Grade 3 or higher TEAE: Any Adverse Event,"1.25 mg/kg Q1W, n = 18",14 (78%) n (%)
same,Grade 3 or higher TEAE: Diarrhoea,"1.25 mg/kg Q1W, n = 18",1 (6%) n (%)
same,Grade 3 or higher TEAE: Fatigue,"1.25 mg/kg Q1W, n = 18",2 (11%) n (%)
same,Grade 3 or higher TEAE: Hyperglycemia,"1.25 mg/kg Q1W, n = 18",1 (6%) n (%)
same,Grade 3 or higher TEAE: Hypophosphataemia,"1.25 mg/kg Q1W, n = 18",2 (11%) n (%)
same,Grade 3 or higher TEAE: Myalgia,"1.25 mg/kg Q1W, n = 18",1 (6%) n (%)
same,Grade 3 or higher TEAE: Nausea,"1.25 mg/kg Q1W, n = 18",1 (6%) n (%)
same,Grade 3 or higher TEAE: Neutropenia,"1.25 mg/kg Q1W, n = 18",4 (22%) n (%)
same,Grade 3 or higher TEAE: Neutrophil count decreased,"1.25 mg/kg Q1W, n = 18",1 (6%) n (%)
same,Grade 3 or higher TEAE: Peripheral Sensory Neuropathy,"1.25 mg/kg Q1W, n = 18",6 (33%) n (%)
same,SAE: Anaemia,"1.25 mg/kg Q1W, n = 18",0 n (%)
same,SAE: Any Adverse Event,"1.25 mg/kg Q1W, n = 18",5 (28%) n (%)
same,SAE: Colitis,"1.25 mg/kg Q1W, n = 18",0 n (%)
same,SAE: Dehydration,"1.25 mg/kg Q1W, n = 18",0 n (%)
same,SAE: Diabetic ketoacidosis,"1.25 mg/kg Q1W, n = 18",0 n (%)
same,SAE: Dyspnoea,"1.25 mg/kg Q1W, n = 18",1 (6%) n (%)
same,SAE: Embolism,"1.25 mg/kg Q1W, n = 18",0 n (%)
same,SAE: Fatigue,"1.25 mg/kg Q1W, n = 18",0 n (%)
same,SAE: Febrile neutropenia,"1.25 mg/kg Q1W, n = 18",0 n (%)
same,SAE: Hyperglycaemia,"1.25 mg/kg Q1W, n = 18",1 (6%) n (%)
same,SAE: Pneumonia,"1.25 mg/kg Q1W, n = 18",2 (11%) n (%)
same,Grade 3 or higher TEAE: Any Adverse Event,"1.5 mg/kg Q1W, n = 2",2 (100%) n (%)
same,Grade 3 or higher TEAE: Myalgia,"1.5 mg/kg Q1W, n = 2",1 (50%) n (%)
same,Grade 3 or higher TEAE: Neutropenia,"1.5 mg/kg Q1W, n = 2",1 (50%) n (%)
same,SAE: Anaemia,"1.5 mg/kg Q1W, n = 2",0 n (%)
same,SAE: Any Adverse Event,"1.5 mg/kg Q1W, n = 2",1 (50%) n (%)
same,SAE: Colitis,"1.5 mg/kg Q1W, n = 2",0 n (%)
same,SAE: Dehydration,"1.5 mg/kg Q1W, n = 2",0 n (%)
same,SAE: Diabetic ketoacidosis,"1.5 mg/kg Q1W, n = 2",0 n (%)
same,SAE: Dyspnoea,"1.5 mg/kg Q1W, n = 2",0 n (%)
same,SAE: Embolism,"1.5 mg/kg Q1W, n = 2",0 n (%)
same,SAE: Fatigue,"1.5 mg/kg Q1W, n = 2",0 n (%)
same,SAE: Febrile neutropenia,"1.5 mg/kg Q1W, n = 2",0 n (%)
same,SAE: Hyperglycaemia,"1.5 mg/kg Q1W, n = 2",0 n (%)
same,SAE: Pneumonia,"1.5 mg/kg Q1W, n = 2",0 n (%)
same,"incidence of a variety of adverse events, Q1W vs Q3W",3.0-4.5 mg/kg per 3 weeks on Q1W vs. 2.5 mg/kg on Q3W,lower incidence
same,dose limiting toxicities,"Dose level 0 (1 mg/kg Q1W), +1 (1.25 mg/kg Q1W), +2 (1.5 mg/kg Q1W)",no dose limiting toxicities observed
same,Adverse event incidence: Abdominal Pain,"Q1W, N = 40",7 (18%)
same,Adverse event incidence: Alopecia,"Q1W, N = 40",10 (25%)
same,Adverse event incidence: Constipation,"Q1W, N = 40",10 (25%)
same,Adverse event incidence: Decreased Appetite,"Q1W, N = 40",11 (28%)
same,Adverse event incidence: Diarrhea,"Q1W, N = 40",11 (28%)
same,Adverse event incidence: Fatigue,"Q1W, N = 40",18 (45%)
same,Adverse event incidence: Hypokalemia,"Q1W, N = 40",4 (10%)
same,Adverse event incidence: Nausea,"Q1W, N = 40",14 (35%)
same,Adverse event incidence: Neutropenia,"Q1W, N = 40",10 (25%)
same,Adverse event incidence: Peripheral Sensory Neuropathy,"Q1W, N = 40",9 (23%)
same,Adverse event incidence: Vomiting,"Q1W, N = 40",8 (20%)
same,Grade 3 or higher TEAE: Any Adverse Event,"Total, all Q1W doses, n = 40",28 (70%) n (%)
same,Grade 3 or higher TEAE: Diarrhoea,"Total, all Q1W doses, n = 40",2 (5%) n (%)
same,Grade 3 or higher TEAE: Fatigue,"Total, all Q1W doses, n = 40",6 (15%) n (%)
same,Grade 3 or higher TEAE: Hyperglycemia,"Total, all Q1W doses, n = 40",4 (10%) n (%)
same,Grade 3 or higher TEAE: Hypophosphataemia,"Total, all Q1W doses, n = 40",3 (8%) n (%)
same,Grade 3 or higher TEAE: Myalgia,"Total, all Q1W doses, n = 40",2 (5%) n (%)
same,Grade 3 or higher TEAE: Nausea,"Total, all Q1W doses, n = 40",2 (5%) n (%)
same,Grade 3 or higher TEAE: Neutropenia,"Total, all Q1W doses, n = 40",7 (18%) n (%)
same,Grade 3 or higher TEAE: Neutrophil count decreased,"Total, all Q1W doses, n = 40",2 (5%) n (%)
same,Grade 3 or higher TEAE: Peripheral Sensory Neuropathy,"Total, all Q1W doses, n = 40",9 (23%) n (%)
same,SAE: Anaemia,"Total, all Q1W doses, n = 40",1 (3%) n (%)
same,SAE: Any Adverse Event,"Total, all Q1W doses, n = 40",11 (28%) n (%)
same,SAE: Colitis,"Total, all Q1W doses, n = 40",1 (3%) n (%)
same,SAE: Dehydration,"Total, all Q1W doses, n = 40",1 (3%) n (%)
same,SAE: Diabetic ketoacidosis,"Total, all Q1W doses, n = 40",1 (3%) n (%)
same,SAE: Dyspnoea,"Total, all Q1W doses, n = 40",3 (8%) n (%)
same,SAE: Embolism,"Total, all Q1W doses, n = 40",1 (3%) n (%)
same,SAE: Fatigue,"Total, all Q1W doses, n = 40",1 (3%) n (%)
same,SAE: Febrile neutropenia,"Total, all Q1W doses, n = 40",1 (3%) n (%)
same,SAE: Hyperglycaemia,"Total, all Q1W doses, n = 40",2 (5%) n (%)
same,SAE: Pneumonia,"Total, all Q1W doses, n = 40",2 (5.%) n (%)
